Assay [1] addresses T1, inactive GIP, GIP(3-42).
T1 peptide: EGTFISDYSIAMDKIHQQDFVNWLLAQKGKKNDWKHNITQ
The experiment in a line: sandwich ELISA, anti-total GIP mAb capture, biotinylated antibody at 1 ug/mL as detection. As for the experimental part:
(§1) The reactivity between the monoclonal antibody prepared in Production Example 1 and active GIP was confirmed by ELISA. The amino group of the anti-active GIP monoclonal antibody was biotinylated with NH2 group biotinylation kit (manufactured by Dojindo Laboratories). ELISA was performed using the produced biotinylated anti-active GIP monoclonal antibody at 1 μg/mL instead of a detection antibody, GIP detection antibody (biotinylated anti-total GIP monoclonal antibody), included in Human (total) GIP ELISA kit (manufactured by EMD Millipore Corporation). A […] dilution series of GIP(1-42) or GIP(3-42) was prepared in 6 steps (8.2 to 2000 pg/mL) with a 2000 pg/mL solution as the highest concentration. By using an anti-total GIP monoclonal antibody (included in Human GIP (total) ELISA kit manufactured by EMD Millipore Corporation) as a capture antibody, the biotinylated anti-active GIP monoclonal antibody as a detection antibody, and a peroxidase-streptavidin conjugate for detection, sandwich ELISA was conducted to prepare a calibration curve with GIP concentration on the X-axis and 450 nm-590 nm absorbance on the Y-axis (FIG. 1).

Assay [2] has as its target T2, active GIP, GIP(1-42).
T2 construct: The assay was built on a Human (total) GIP ELISA kit
T2 peptide: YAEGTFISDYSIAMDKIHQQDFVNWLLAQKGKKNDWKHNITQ
The experiment in a line: sandwich ELISA, anti-total GIP mAb capture, biotinylated antibody at 1 ug/mL as detection, GIP 8.2 to 2000 pg/mL. On the procedure:
as §1

Assay [3] concerns the target T3, PEGylated N-terminus 13 amino acids of inactive GIP (GIP(3-15)), antigen (2) for measurement (also: PEGylated, position not given here).
T3 construct: Immobilized on the ELISA plate; also called PEGylated GIP(3-15)
T3 peptide: EGTFISDYSIAMD
The assay is described as follows: ELISA, immobilized peptide antigen, hybridoma culture supernatant. As for the experimental part:
(§2) The reaction between the hybridoma culture supernatant and the antigen (1) and (2) for measurement was evaluated by ELISA using immobilized antigen (1) and (2), and hybridomas that are positive for the antigen (1) and negative for the antigen (2) were selected as anti-active GIP monoclonal antibody-producing hybridomas.
(§3) Antibody-producing hybridoma was cloned by culturing the hybridomas obtained above through a limiting dilution method to obtain single colonies, and single colony-forming wells were subjected to ELISA again to establish 9B9H5-B9 line, which produces an antibody that is positive for the antigen (1) and negative for the antigen (2) (WO 2016/104439).

Assay [4] addresses T4, PEGylated N-terminus 15 amino acids of active GIP (GIP(1-15)), antigen (1) for measurement (also: PEGylated, position not given here).
T4 construct: Immobilized on the ELISA plate; The assay antigen carries no KLH; only the immunogen was KLH-linked; also called PEGylated GIP(1-15)
T4 peptide: YAEGTFISDYSIAMD
The assay is described as above. As for the experimental part: as §2, §3

Where no end group is shown, it is not given here.

B1: anti-active GIP monoclonal antibody produced by hybridoma 9B9H5-B9 line (Production Example 1) (antibody, V domains shown)
VH: QVQLQQPGAELVKPGASVKLSCKASGYTFTSFWMHWVIQRPGQGLEWIGEMNPSDGRTHFNEKFKTKATLTIDTSSNTAYMELNSLTSEDSAVYYCARRMEDWGQGTLVTVSA
VL: DIKMTQSPSSMYASLGERVTITCKASQDINSYLGWFQQKPGKSPKTLIYGANRLVDGVPSRFSGSGSGQDYSLTISSLEYDDMGIYYCLQYDEFPLTFGAGTKLELKR
notes: Mouse (BALB/c) hybridoma monoclonal antibody; Culture supernatant was used in the screening and cloning ELISA; also called anti-active GIP antibody
Take B1: the binding result is “no binding” in assay [1], “binds” in assay [2], “no binding” in assay [3] and “binds” in assay [4].

The values above are taken from patent publication US20190330333A1 (KAO, published 2019).
